The record followed here is patent US20140087991A1, “PEPTIDE PRODRUGS” (The Johns Hopkins University, priority 2006, published 2014).

The assay has as its target T1, FAP (Homo sapiens, UniProt Q12884).
T1 construct: the extracellular domain of FAP was cloned with a His-6 tag; made in house
T1 sequence (Q12884 26-760 limits assumed): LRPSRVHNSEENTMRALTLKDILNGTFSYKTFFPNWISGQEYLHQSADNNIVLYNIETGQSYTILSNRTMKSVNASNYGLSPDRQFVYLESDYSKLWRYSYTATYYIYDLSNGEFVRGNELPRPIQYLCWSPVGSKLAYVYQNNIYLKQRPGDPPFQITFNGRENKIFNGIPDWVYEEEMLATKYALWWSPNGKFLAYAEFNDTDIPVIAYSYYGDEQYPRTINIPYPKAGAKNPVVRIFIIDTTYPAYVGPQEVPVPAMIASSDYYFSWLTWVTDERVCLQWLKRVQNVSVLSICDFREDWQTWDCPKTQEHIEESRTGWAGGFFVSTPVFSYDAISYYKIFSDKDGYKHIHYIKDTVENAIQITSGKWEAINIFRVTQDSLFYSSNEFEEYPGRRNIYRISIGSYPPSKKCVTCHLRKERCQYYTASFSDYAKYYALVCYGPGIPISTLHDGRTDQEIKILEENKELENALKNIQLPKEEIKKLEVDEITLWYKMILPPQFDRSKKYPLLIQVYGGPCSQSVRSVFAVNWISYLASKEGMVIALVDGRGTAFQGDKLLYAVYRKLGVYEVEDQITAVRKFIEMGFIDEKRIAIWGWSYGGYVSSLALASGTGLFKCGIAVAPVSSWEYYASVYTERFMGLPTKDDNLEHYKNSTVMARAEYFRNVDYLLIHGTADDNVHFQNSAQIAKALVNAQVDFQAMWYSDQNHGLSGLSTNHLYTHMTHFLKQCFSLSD
In words: LC-MS/MS cleavage map of FAP digest of 100 kDa recombinant human gelatin. The class given is biochemical. To be noted: 100 kDa gelatin digest; for Percentage: share of all occurrences. How it is done:
Human collagen I (Becton Dickinson, Franklin Lakes, N.J.) and recombinant human gelatins of 100 KDa and 8.5 KDa (Fibrogen, San Francisco, Calif.) were dissolved in reaction buffer to a final concentration of 100-300 μg/ml. 0.5-1 μg of FAP was added per 100 μgs of protein substrate. Digestion was done for 4-6 hrs at 37° C. As a positive control trypsin digestion was used. As a negative control, protein solutions were incubated either with BSA or buffer only. Peptide fragments of a size <30 KDa were purified using 30 KDa Microcon spin filter (Millipore, Billerica, Mass.).
Peptides obtained from FAP/gelatin digests were dried using a speedvac (Eppendorf), resuspended in LC/MS loading buffer (3% ACN, 0.1% formic acid), and analyzed using nano-flow LC/MS/MS on an Agilent 1100 series nano-LC system (Agilent) coupled to an LCQ Duo ion trap mass spectrometer (ThermoFinnigan). Peptides were pre-concentrated on a 5 mm Zorbax C18 trap column (Agilent) and then eluted onto a 100×0.075 mm custom-packed Biobasic C18 (ThermoElectron) reversed phase capillary column connected to a laser-pulled electrospray ionization emitter tip (New Objective) at a flowrate of 300 nl/min Peptides were eluted the nanospray source of the LCQ (Proxeon, Denmark) using the following gradient: 0% B at 0 min, 5% B at 8 min, 45% B at 50 min, 90% B at 55 min, 90% B at 60 min (B=0.1% formic acid in acetonitrile) at a spray voltage of 2.5 kV. The LCQ was operated in data-dependent mode using the Xcalibur software (ThermoFinnigan) in which every MS scan (400-1800 m/z) was followed by MS/MS scans (400-1800 m/z) on the 3 most intense ions using an isolation window of ±1.5 Da. Ions selected for MS/MS fragmentation were dynamically excluded for 30 s.
MS/MS data were searched against a collagen FASTA database using the SEQUEST search algorithm built into the Bioworks Browser (ThermoFinnigan) allowing for the variable modification of Methionine oxidation. Peptides were initially filtered in a charge dependent manner using an XCorr filter of 1.5, 2, and 2.5 for singly, doubly, and triply charged peptides. All MS/MS spectra used to identify peptides were manually inspected for validation of y and b-ion series. To quantify the relative abundance of each identified peptide we compared the ion current for each of the observed peptide parent ions from the MS spectra. The contribution of each parent ion to the total ion current was extracted and integrated over the peptide elution peak.
To resolve each particular mass fragment a Liquid Chromatograpy (LC) and Tandem mass spectroscopy (MS-MS) [LC-MS-MS] method was developed. Using this method, peptide fragments from FAP digests of the 8.5 kDa and 100 kDa recombinant gelatin were time-resolved by nano reverse phase LC (FIGS. 12 and 14) and then sequenced using an ion trap mass spectrometer operating in MS/MS mode. Initial methodological issues were worked out using the 8.5 kDa fragment before analyzing the entire 100 kDa protein. MS/MS spectra were searched against the 8.5 kDa and 100 kDa gelatin sequences using the SEQUEST algorithm with no cleavage specificity. Most of the identified cleavage sites in both sized gelatins occurred after Proline. However, FAP cleavage sites in these gelatins were not restricted to Proline alone. FAP was also found to cleave after Ala (e.g. A/A, A/G, A/P, A/R), Asp (e.g. D/G, D/T), Gly (e.g. G/A, G/E, G/L, G/Q, G/P, G/V), Glu (i.e., E/P), Lys (i.e., K/A, K/G), Ser (e.g. S/P) and Val (e.g. V/G).
To identify the most preferentially cleaved sites, we relatively quantified the abundance of each of the identified peptides by integrating the ion current generated by each peptide throughout the chromatogram. After identification of a peptide from a MS/MS spectrum, we extracted the ion current for the parent mass of the ion from the total MS ion chromatogram using a 1.5 Da tolerance window, and then integrated under the peak (FIGS. 12 and 14). […]

With “A.PGDKGESGP.S: FAP cleavage fragment, 100 kDa recombinant human gelatin”, the Occurences came to 2 and the Percentage is 0.95.
The like results for “P.IGPPGPAGAPGDKGESGP.S: FAP cleavage fragment, 100 kDa recombinant human gelatin” were, in that order, 6 and 2.86.
Taken in the same sequence, the figures for “P.GPSGNAGPPGPP.G: FAP cleavage fragment, 100 kDa recombinant human gelatin” were 1 and 0.48.
The like results for “P.RGPPGSAGAPGKDGLNGLPGP.I: FAP cleavage fragment, 100 kDa recombinant human gelatin” were, in that order, 14 and 6.67.
As for “D.GQPGAKGEPGDAGAKGDAGPPGP.A: FAP cleavage fragment, 100 kDa recombinant human gelatin”, the Occurences is 2 and the Percentage turned out to be 0.95.
Taken in the same sequence, the figures for “G.PPGAPGAPGAPGPVGPAGKSGDRGETGP.A: FAP cleavage fragment, 100 kDa recombinant human gelatin” were 7 and 3.33.
The like results for “G.PTGARGAPGDRGEPGPPGP.A: FAP cleavage fragment, 100 kDa recombinant human gelatin” were, in that order, 6 and 2.86.
“P.GPPGAPGP.Q: FAP cleavage fragment, 100 kDa recombinant human gelatin”: the Occurences stood at 1 and the Percentage came to 0.48.
Taken in the same sequence, the figures for “G.PPGPAGAPGDK.G: FAP cleavage fragment, 100 kDa recombinant human gelatin” were 2 and 0.95.
As to “P.VGPPGPPGPPGPPGPP.: C-terminal FAP cleavage fragment, 100 kDa recombinant human gelatin (PVGPPGPPGPPGPPGPP)”, the Occurences came out at 19, the “relative abundance of fragment by integrated ion current” value is listed as “most abundantly identified fragment” and the Percentage is reported as 9.05.
With “P.AGPPGAPGAPGAPGPVGPAGKSGDRGETGP.A: FAP cleavage fragment, 100 kDa recombinant human gelatin”, the Occurences worked out at 6 and the Percentage is recorded as 2.86.
Taken in the same sequence, the figures for “P.QGVRGEPGPPGP.A: FAP cleavage fragment, 100 kDa recombinant human gelatin” were 3 and 1.43.
Taken in the same sequence, the figures for “G.PPGPAGPAGPPGP.I: FAP cleavage fragment, 100 kDa recombinant human gelatin” were 1 and 0.48.
Taken in the same sequence, the figures for “P.PGPAGAPGDKGESGP.S: FAP cleavage fragment, 100 kDa recombinant human gelatin” were 2 and 0.95.
“P.PGLAGPPGESGREGAPGAEGSPGRD.G: FAP cleavage fragment, 100 kDa recombinant human gelatin”: the Occurences is 2 and the Percentage is 0.95.
Taken in the same sequence, the figures for “D.GRPGPPGPPGARGQAG.V: FAP cleavage fragment, 100 kDa recombinant human gelatin” were 2 and 0.95.
Taken in the same sequence, the figures for “P.AGEKGSPGADGPAGAPGTPGP.Q: FAP cleavage fragment, 100 kDa recombinant human gelatin” were 7 and 3.33.
Taken in the same sequence, the figures for “P.AGPPGAPGAPGAPGPVGP.A: FAP cleavage fragment, 100 kDa recombinant human gelatin” were 2 and 0.95.
For the substance “A.AGRVGPPGP.S: FAP cleavage fragment, 100 kDa recombinant human gelatin”, the Occurences came out at 2 and the Percentage is 0.95.
The like results for “P.TGARGAPGDRGEPGPPGP.A: FAP cleavage fragment, 100 kDa recombinant human gelatin” were, in that order, 13 and 6.19.
Turning to “P.SGEPGKQGPSGASGERGPPGP.M: FAP cleavage fragment, 100 kDa recombinant human gelatin”, the Occurences was 4 and the Percentage was 1.90.
In the case of “E.PGKQGPSGASGERGPPGP.M: FAP cleavage fragment, 100 kDa recombinant human gelatin”, the Occurences is 5 and the Percentage worked out at 2.38.
As to “P.AGPPGAPGAPGAPGP.V: FAP cleavage fragment, 100 kDa recombinant human gelatin”, the Occurences was determined as 8 and the Percentage came to 3.81.
For the substance “G.PPGADGQPGAKGEPGDAGAKGDAGPPGP.A: FAP cleavage fragment, 100 kDa recombinant human gelatin”, the Occurences turned out to be 2 and the Percentage is listed as 0.95.
Taken in the same sequence, the figures for “P.AGPTGARGAPGDRGEPGPPGP.A: FAP cleavage fragment, 100 kDa recombinant human gelatin” were 6 and 2.86.
The like results for “P.AGFAGPPGADGQPGAKGEPGDAGAKGDAGPPGP.A: FAP cleavage fragment, 100 kDa recombinant human gelatin” were, in that order, 8 and 3.81.
Taken in the same sequence, the figures for “P.SGNAGPPGPPGP.A: FAP cleavage fragment, 100 kDa recombinant human gelatin” were 14 and 6.67.
Regarding “G.PSGEPGKQGPSGASGERGPPGP.M: FAP cleavage fragment, 100 kDa recombinant human gelatin”, the Occurences was determined as 1 and the Percentage came to 0.48.
Taken in the same sequence, the figures for “A.PGPVGPAGKSGDRGETGP.A: FAP cleavage fragment, 100 kDa recombinant human gelatin” were 1 and 0.48.
The like results for “P.VGPPGPPGPP.G: FAP cleavage fragment, 100 kDa recombinant human gelatin” were, in that order, 3 and 1.43.
